Experimental data: article PMC3432076

Target: His-ΔPACC (Neurospora crassa) (UniProt Q7RVQ8)
Assay: EMSA
Conditions: EMSA: 25 mM HEPES-KOH pH 7.9, 20 mM KCl, 10% glycerol, 1 mM DTT, 0.2 mM EDTA, 0.5 mM PMSF, 12.5 mM benzamidine, 5 µg/mL antipain and pepstatin A, 2 µg …

Sequence of His-ΔPACC (Neurospora crassa) (Q7RVQ8 1-213, stated change not applied): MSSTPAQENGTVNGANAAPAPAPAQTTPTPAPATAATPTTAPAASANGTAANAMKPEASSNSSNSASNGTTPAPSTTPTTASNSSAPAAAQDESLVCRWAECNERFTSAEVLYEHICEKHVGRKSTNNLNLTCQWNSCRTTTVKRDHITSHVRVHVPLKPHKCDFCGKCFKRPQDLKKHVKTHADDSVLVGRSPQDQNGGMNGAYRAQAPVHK

With “GACCCAACAGCCCAACTTGTGCTTGTCTTGTTCTTTTCCGGCCTCGCTAGAGGTACTATTTCTTCGCTTCTTGTCTGACTTTTTTCAATAGCCGTCTTTGGGCCAGAAATTACGTGAGATCGGGGCCGCATGGGAGTATTCGTTGC (double strand) [mpacC probe (CTTGGC to AAATTA)]” as the sequence, how does the binding read?
Its binding is “binds more weakly”.

“GACCCAACAGCCCAACTTGTGCTTGTCTTGTTCTTTTCCGGCCTCGCTAGAGGTACTATTTCTTCGCTTCTTGTCTGACTTTTTTCAATAGCCGTCTTTGGGCCAGCTTGGCCGTGAGATCGGGGCCGCATGGGAGTATTCGTTGC (double strand) [pacC probe (146 bp gsn promoter)]” was tested. Which binding did it give?
Its binding is “binds”.
